These results are taken from the supplement of paper PMC12042874.

± gives the uncertainty stated by the source.

This data set in a line: amyloid nucleation score (Sup35N fusion, yeast selection) (log enrichment); library NNK3; higher = more nucleation; inactive = no reads after selection. Summed up: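 Nucleation score is defined as the DiMSum log enrichment of output over input reads, with centring on the mode score of non-aggregating sequences. A minimum of 100 input reads was required for each sequence. Reads came from Illumina sequencing of plasmid inserts from psi-negative yeast expressing Sup35N fused to peptides of 20 random codons, induced with 100 μM copper sulfate for 24 hours and grown 7 days at 30°C on medium lacking adenine and uracil.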
On to SFHTSGSNKGYCCGVMWMDK, for which the amyloid nucleation score result is “inactive”.

For SFITIVIVSVGMRSLVLHRL, the amyloid nucleation score entry was “inactive”.

For the substance SFLRTVNGGRFSSVCSL, the amyloid nucleation score result is “inactive”.

With SFNFCLFASLSALCMTRVEF, the amyloid nucleation score result was “inactive”.

With SFNNACVFYMNSWLRWRI, the amyloid nucleation score was found to be 1.96 ± 0.083.

The substance SFNRISIFYVNWCTAMNFVY gave an amyloid nucleation score of 1.13 ± 0.093.

Regarding SFRFWSFYTCGEYKWDGTKG, the amyloid nucleation score entry was “inactive”.

For the substance SFRMSTSCWSSGALMYRLYR, the amyloid nucleation score entry is “inactive”.

With SFRRLDGNRNLFSSCRVNGL, the amyloid nucleation score result is “inactive”.

Take SFSCMKDSGPNMCKGLRVKQ: the amyloid nucleation score entry is “inactive”.

Turning to SFSIDLMTSLSWHLLSCRTF, the amyloid nucleation score entry was “inactive”.

In the case of SFSSFVFTMEALASAVSTHH, the amyloid nucleation score result is “inactive”.

The substance SFTAYVASLA returned an amyloid nucleation score of -0.151 ± 1.1.

Take SFTRCWLNKREMKMYTFSAR: the amyloid nucleation score entry was “inactive”.

In the case of SFYYILYTGCVIGIVASLFK, the amyloid nucleation score is -0.408 ± 0.58.

Turning to SGCERAWMAVCENRSSCILG, the amyloid nucleation score entry was “inactive”.

Turning to SGDPSSLEDIGFVIYWRIYI, the amyloid nucleation score entry was “inactive”.

On to SGFYSLIVYNGFERALFVGS, for which the amyloid nucleation score entry is “inactive”.

With SGKGKCVYNVLRQGFFSKMS, the amyloid nucleation score result was “inactive”.

On to SGKILQRPLSWLSCVMQVES, for which the amyloid nucleation score result is “inactive”.

Take SGLDFAYLDECSREGSVYAG: the amyloid nucleation score entry is “inactive”.

For the substance SGLRASSSVMSCAYLTISWN, the amyloid nucleation score entry was “inactive”.

Take SGQNKEQVVWMCTVRLPESS: the amyloid nucleation score entry is “inactive”.

Take SGSAELARLHYRMELKAPYL: the amyloid nucleation score entry is “inactive”.

Turning to SGTFYANVWFRFISFGWYLR, the amyloid nucleation score entry was “inactive”.

As for SHCVSTT, the amyloid nucleation score entry is “inactive”.

Regarding SHGGYACTSLIMTLIPLLYM, the amyloid nucleation score result is “inactive”.

With SHGHDSVTRNRQGPCGIRIY, the amyloid nucleation score entry was “inactive”.

Regarding SHIFCSFFKSSYLNSGWQHG, the amyloid nucleation score entry is “inactive”.

Consider SHKFMRCGPQMASGCNWELA, for which the amyloid nucleation score entry was “inactive”.

SHPYLT returned an amyloid nucleation score of 0.071 ± 0.35.

On to SHVLWDGTWEVGGGGHKA, for which the amyloid nucleation score result is “inactive”.

As for SHVNRVRSLYVGE, the amyloid nucleation score entry is “inactive”.

Take SIDLNGKG: the amyloid nucleation score result was “inactive”.

Turning to SIFLGLRSRQLSFISLLEDG, the amyloid nucleation score result was “inactive”.

The substance SIFMCNIVLFKRVVLPRGAS showed an amyloid nucleation score of 0.886 ± 0.18.

As to SILLIFCLSKTRFSVMSFLP, the amyloid nucleation score entry is “inactive”.

SIMREMWWSDTLFGGMNRFW: the amyloid nucleation score is 0.992 ± 0.11.

In the case of SIMYFVTNGCGNGC, the amyloid nucleation score is 1.79 ± 0.086.

On to SIPLLTQMWTVNGNRRWQTA, for which the amyloid nucleation score entry was “inactive”.

On to SIRNFVTSENTVLSDIKPWR, for which the amyloid nucleation score entry is “inactive”.

As to SISYINRKHTRNDTPRLRGV, the amyloid nucleation score entry is “inactive”.

As for SIWEHRSNS, the amyloid nucleation score result was “inactive”.

In the case of SIYFWCS, the amyloid nucleation score was 2.09 ± 0.065.

For SKCVGISLRALVYYGHSQVT, the amyloid nucleation score entry was “inactive”.

As to SKFFQQPWL, the amyloid nucleation score entry is “inactive”.

Take SKIFSCYVVLKSMLTDPGVA: the amyloid nucleation score result was “inactive”.

As for SKLCELLSLQTAVAYMMSGA, the amyloid nucleation score result is “inactive”.

As to SKLHAE, the amyloid nucleation score entry was “inactive”.

Regarding SKTGLDMADMIKRGDCGEST, the amyloid nucleation score entry was “inactive”.

Take SKVRICKDKGWSG: the amyloid nucleation score entry is “inactive”.

Take SKVWRYI: the amyloid nucleation score result is “inactive”.

Regarding SKYKVCFTRSFF, the amyloid nucleation score entry was “inactive”.
